Assay results: the supplement of paper PMC7877785
± gives the uncertainty stated by the source.

Experiment: self-splicing fitness, log relative to wild type (ln ratio); higher = more splicing; Tetrahymena group I intron in knt gene, E. coli kanamycin selection, DiMSum; sequences stand for … in CUCUCU…GGAGGGAAAAGUUAUCAGGCAUGCACCUGGUAGCUAGUCUUUAAACCAAUAGAUUGCAUCGGUUUAAAAGGCAAGACCGUCAAAUUGCGGGAAAGGGGUCAACAGCCGUUCAGUACCAAGUCUCAGGGGAAACUUUGAGAUGGCCUUGCAAAGGGUAUGGUAAUAAGCUGACGGACAUGGUCCUAACCACGCAGCCAAGUCCUAAGUCAACAGAUCUUCUGUUGAUAUGGAUGCAGUUCACAGACUAAAUGUCGGUCGGGGAAGAUGUAUUCUUCUCAUAAGAUAUAGUCGGACCUCUCCUUAAUGGGAGCUAGCGGAUGAAGUGAUGCAACACUGGAGCCGCUGGGAACUAAUUUGUAUGCGAAAGUAUAUUGAUUAGUUUUGGAGUACUCGUGGUCG
In short: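 The eight P1ex-region nucleotides of an intron in the knt kanamycin-resistance gene on pET-22b(+) were all randomised and the library put into E. coli BL21(DE3). Six replicate transformations were grown overnight at 37°C or 30°C on LB agar with or without 25 μg/mL kanamycin, together with 100 μg/mL carbenicillin, 50 μM IPTG and 0.2% rhamnose. Colonies were pooled and amplicon-sequenced on an Illumina HiSeq 2500. Fitness from DiMSum is the error-weighted combination of wild-type-normalised replicate fold changes, kanamycin over none.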

Sequence | self-splicing fitness (ln) (37 °C) | self-splicing fitness (ln) (30 °C)
GCGGAGCAAUAUUACGGGCA | -1.1 ± 0.47 | –
GCGGAGCAAUAUUACGGGUA | -1.72 ± 0.2 | -4.43 ± 0.42
GCGGAGCAAUAUUACGGUCG | -2.41 ± 0.21 | -3.61 ± 0.26
GCGGAGCAAUAUUACGUAUU | -2.48 ± 0.41 | -3.85 ± 0.25
GCGUAGCAAUAUUACGAAGA | -1.51 ± 0.24 | -1.89 ± 0.21
GCGUAGCAAUAUUACGAAGC | -1.67 ± 0.47 | -3.48 ± 0.3
GCGUAGCAAUAUUACGAAUG | -0.603 ± 0.13 | -1.32 ± 0.11
GCGUAGCAAUAUUACGACAG | -0.456 ± 0.44 | -2.66 ± 0.48
GCGUAGCAAUAUUACGACUU | 0.154 ± 0.15 | -0.421 ± 0.11
GCGUAGCAAUAUUACGAGAG | -3.27 ± 0.33 | -3.3 ± 0.28
GCGUAGCAAUAUUACGAGGU | -2.62 ± 0.36 | -2.81 ± 0.36
GCGUAGCAAUAUUACGCAGU | -2.28 ± 0.25 | -4.05 ± 0.34
GCGUAGCAAUAUUACGCAUU | -2.58 ± 0.27 | -2.88 ± 0.2
GCGUAGCAAUAUUACGCCUG | -3.13 ± 0.37 | -4.08 ± 0.42
GCGUAGCAAUAUUACGCGCG | -2.42 ± 0.31 | -3.2 ± 0.26
GCGUAGCAAUAUUACGCUAU | -2.46 ± 0.45 | -4.42 ± 0.42
GCGUAGCAAUAUUACGCUCU | -1.59 ± 0.27 | -3 ± 0.46
GCGUAGCAAUAUUACGGAAA | -0.0155 ± 0.18 | -3.29 ± 0.37
GCGUAGCAAUAUUACGGAGU | -1.44 ± 0.14 | -2.88 ± 0.16
GCGUAGCAAUAUUACGGAUU | -0.574 ± 0.15 | -1.59 ± 0.13
GCGUAGCAAUAUUACGGCCU | -0.113 ± 0.25 | -0.557 ± 0.16
GCGUAGCAAUAUUACGUACU | -0.552 ± 0.17 | -2.08 ± 0.15
GCGUAGCAAUAUUACGUCCA | -0.365 ± 0.1 | -1.49 ± 0.099
GCGUAGCAAUAUUACGUCCC | – | -0.245 ± 0.24
GCGUAGCAAUAUUACGUGGG | -3.04 ± 0.24 | -3.84 ± 0.22

Sequence | self-splicing fitness (ln) (37 °C) | self-splicing fitness (ln) (30 °C)
GCGUAGCAAUAUUACGUUAA | -1.74 ± 0.2 | -2.13 ± 0.23
GCGUAGCAAUAUUACGUUUC | -1.83 ± 0.22 | -4.29 ± 0.34
GCGUAGCAAUAUUACGUUUU | -1.8 ± 0.13 | -3.15 ± 0.14
GCUAAGCAAUAUUACGAGGA | -0.693 ± 0.12 | -1.73 ± 0.11
GCUAAGCAAUAUUACGCAAC | -0.352 ± 0.47 | -2.35 ± 0.42
GCUAAGCAAUAUUACGCAUA | -1.5 ± 0.093 | -1.97 ± 0.11
GCUAAGCAAUAUUACGCCUG | -1.55 ± 0.22 | -0.523 ± 0.16
GCUAAGCAAUAUUACGGAUU | -1.12 ± 0.092 | -1.14 ± 0.068
GCUAAGCAAUAUUACGGGCA | -1.11 ± 0.13 | -1.52 ± 0.098
GCUAAGCAAUAUUACGGUAG | -3.35 ± 0.3 | -3.12 ± 0.21
GCUAAGCAAUAUUACGGUCU | -1.06 ± 0.085 | -0.772 ± 0.083
GCUAAGCAAUAUUACGUAAU | -0.189 ± 0.11 | -0.775 ± 0.088
GCUAAGCAAUAUUACGUCGA | -0.619 ± 0.15 | -1.21 ± 0.11
GCUAAGCAAUAUUACGUUUA | -1.69 ± 0.21 | -2.9 ± 0.24
GCUAAGCAAUAUUACGUUUG | -0.954 ± 0.12 | -2.16 ± 0.09
GCUCAGCAAUAUUACGAACA | -0.676 ± 0.1 | -0.688 ± 0.088
GCUCAGCAAUAUUACGAAGG | -0.29 ± 0.1 | -0.909 ± 0.073
GCUCAGCAAUAUUACGAAGU | -0.416 ± 0.15 | -1.63 ± 0.16
GCUCAGCAAUAUUACGAAUA | -0.439 ± 0.072 | -1.02 ± 0.066
GCUCAGCAAUAUUACGACUA | -0.247 ± 0.18 | -0.565 ± 0.17
GCUCAGCAAUAUUACGACUU | -0.0421 ± 0.078 | 0.064 ± 0.085
GCUCAGCAAUAUUACGAUAA | -0.579 ± 0.11 | -0.805 ± 0.092
GCUCAGCAAUAUUACGAUGA | -2.26 ± 0.31 | -2.09 ± 0.2
GCUCAGCAAUAUUACGCACA | 0.0263 ± 0.11 | -1.05 ± 0.1
GCUCAGCAAUAUUACGCACC | 0.598 ± 0.24 | -1.94 ± 0.23

Sequence | self-splicing fitness (ln) (37 °C) | self-splicing fitness (ln) (30 °C)
GCUCAGCAAUAUUACGCCAA | – | -1.52 ± 0.42
GCUCAGCAAUAUUACGCCUU | 0.141 ± 0.14 | 0.0207 ± 0.11
GCUCAGCAAUAUUACGCGAU | -1.51 ± 0.14 | -2.55 ± 0.15
GCUCAGCAAUAUUACGCGGG | -2.78 ± 0.2 | -3.41 ± 0.2
GCUCAGCAAUAUUACGCUCU | 0.39 ± 0.12 | -1.09 ± 0.082
GCUCAGCAAUAUUACGGGAA | 0.252 ± 0.16 | -0.173 ± 0.099
GCUCAGCAAUAUUACGGGAG | -1.22 ± 0.11 | -2.46 ± 0.12
GCUCAGCAAUAUUACGGUAG | -1.89 ± 0.21 | -2.79 ± 0.26
GCUCAGCAAUAUUACGGUGU | 0.0463 ± 0.076 | -1.3 ± 0.062
GCUCAGCAAUAUUACGUAUG | -1.62 ± 0.091 | -2.44 ± 0.076
GCUCAGCAAUAUUACGUAUU | -0.23 ± 0.068 | -0.945 ± 0.053
GCUCAGCAAUAUUACGUCUG | -1.99 ± 0.11 | -2.36 ± 0.094
GCUCAGCAAUAUUACGUGUU | 0.555 ± 0.064 | -0.538 ± 0.055
GCUCAGCAAUAUUACGUUCC | -0.507 ± 0.088 | -0.532 ± 0.062
GCUGAGCAAUAUUACGAAGG | -1.52 ± 0.28 | –
GCUGAGCAAUAUUACGACAA | -1.07 ± 0.39 | -3.36 ± 0.45
GCUGAGCAAUAUUACGACCC | -0.524 ± 0.39 | –
GCUGAGCAAUAUUACGAGCA | -1.34 ± 0.15 | -1.54 ± 0.14
GCUGAGCAAUAUUACGAUCA | -1.55 ± 0.35 | –
GCUGAGCAAUAUUACGAUUU | -0.288 ± 0.096 | -1.04 ± 0.08
GCUGAGCAAUAUUACGCCUC | -1.53 ± 0.49 | -1.67 ± 0.42
GCUGAGCAAUAUUACGGAUC | -0.415 ± 0.12 | -1.43 ± 0.087
GCUGAGCAAUAUUACGGUGG | -3.95 ± 0.37 | -3.32 ± 0.22
GCUGAGCAAUAUUACGUCUU | -1.17 ± 0.15 | -1.91 ± 0.11
GCUGAGCAAUAUUACGUGGA | -2.9 ± 0.31 | -2.09 ± 0.19

Sequence | self-splicing fitness (ln) (37 °C) | self-splicing fitness (ln) (30 °C)
GCUGAGCAAUAUUACGUGUG | -1.9 ± 0.1 | -3.29 ± 0.12
GCUGAGCAAUAUUACGUUUA | -1.87 ± 0.25 | -2.35 ± 0.24
GCUUAGCAAUAUUACGAAAA | -1.12 ± 0.28 | -1.6 ± 0.29
GCUUAGCAAUAUUACGAAGU | -2.27 ± 0.21 | -3.26 ± 0.21
GCUUAGCAAUAUUACGAAUC | -0.0191 ± 0.15 | -0.244 ± 0.12
GCUUAGCAAUAUUACGAAUU | -0.24 ± 0.097 | -1.06 ± 0.076
GCUUAGCAAUAUUACGACCU | 0.203 ± 0.14 | -0.423 ± 0.1
GCUUAGCAAUAUUACGACUG | -0.937 ± 0.11 | -1.67 ± 0.1
GCUUAGCAAUAUUACGAUAG | -0.174 ± 0.097 | -2.11 ± 0.096
GCUUAGCAAUAUUACGCCCG | -0.534 ± 0.2 | -1.04 ± 0.15
GCUUAGCAAUAUUACGCCCU | -0.719 ± 0.13 | -1.54 ± 0.11
GCUUAGCAAUAUUACGCCGG | -1.44 ± 0.22 | -1.97 ± 0.2
GCUUAGCAAUAUUACGCGUG | -1.64 ± 0.11 | -1.74 ± 0.1
GCUUAGCAAUAUUACGCUCC | -1.09 ± 0.26 | -0.928 ± 0.15
GCUUAGCAAUAUUACGGACC | 0.79 ± 0.22 | -1.17 ± 0.17
GCUUAGCAAUAUUACGGCCU | -1.57 ± 0.25 | -1.05 ± 0.18
GCUUAGCAAUAUUACGGGAG | -1.29 ± 0.18 | -2.42 ± 0.18
GCUUAGCAAUAUUACGGGUA | -0.513 ± 0.12 | -1.43 ± 0.15
GCUUAGCAAUAUUACGUAGC | -1.75 ± 0.26 | -3.12 ± 0.26
GCUUAGCAAUAUUACGUAGU | -0.156 ± 0.11 | -1.2 ± 0.092
GCUUAGCAAUAUUACGUCCA | -0.697 ± 0.14 | -1.72 ± 0.14
GCUUAGCAAUAUUACGUUAC | -1.88 ± 0.19 | -2.56 ± 0.18
